From patent US20110301073

Key:
[1] = tested on: TALE repeat framework A10L (SEQ 408) repeat 5: A10L (Xanthomonas sp. (engineered)); details: average of 3 experiments
[2] = tested on: TALE repeat framework A8L (SEQ 404) repeat 5: A8L (Xanthomonas sp. (engineered)); details: average of 3 experiments
[3] = tested on: TALE repeat framework A8T (SEQ 405) repeat 5: A8T (Xanthomonas sp. (engineered)); details: average of 3 experiments
[4] = tested on: TALE repeat framework E20A (SEQ 410) repeat 5: E20A (Xanthomonas sp. (engineered)); details: average of 3 experiments
[5] = tested on: TALE repeat framework I9A (SEQ 406) repeat 5: I9A (Xanthomonas sp. (engineered)); details: average of 3 experiments
[6] = tested on: TALE repeat framework I9V (SEQ 407) repeat 5: I9V (Xanthomonas sp. (engineered)); details: average of 3 experiments
[7] = tested on: TALE repeat framework L25A (SEQ 418) repeat 5: L25A (Xanthomonas sp. (engineered)); details: average of 3 experiments
[8] = tested on: TALE repeat framework L25Q (SEQ 419) repeat 5: L25Q (Xanthomonas sp. (engineered)); details: average of 3 experiments
[9] = tested on: TALE repeat framework L26A (SEQ 420) repeat 5: L26A (Xanthomonas sp. (engineered)); details: average of 3 experiments
[10] = tested on: TALE repeat framework P27A (SEQ 421) repeat 5: P27A (Xanthomonas sp. (engineered)); details: average of 3 experiments
[11] = tested on: TALE repeat framework P27L (SEQ 422) repeat 5: P27L (Xanthomonas sp. (engineered)); details: average of 3 experiments
[12] = tested on: TALE repeat framework Q23A (SEQ 413) repeat 5: Q23A (Xanthomonas sp. (engineered)); details: average of 3 experiments
[13] = tested on: TALE repeat framework Q23K (SEQ 415) repeat 5: Q23K (Xanthomonas sp. (engineered)); details: average of 3 experiments
[14] = tested on: TALE repeat framework Q23R (SEQ 414) repeat 5: Q23R (Xanthomonas sp. (engineered)); details: average of 3 experiments
[15] = tested on: TALE repeat framework Q23W (SEQ 416) repeat 5: Q23W (Xanthomonas sp. (engineered)); details: average of 3 experiments
[16] = tested on: TALE repeat framework Q5A (SEQ 75) repeat 5: Q5A (Xanthomonas sp. (engineered)); details: average of 3 experiments
[17] = tested on: TALE repeat framework R24A (SEQ 417) repeat 5: R24A (Xanthomonas sp. (engineered)); details: average of 3 experiments
[18] = tested on: TALE repeat framework S11A (SEQ 409) repeat 5: S11A (Xanthomonas sp. (engineered)); details: average of 3 experiments
[19] = tested on: TALE repeat framework T21A (SEQ 411) repeat 5: T21A (Xanthomonas sp. (engineered)); details: average of 3 experiments
[20] = tested on: TALE repeat framework T21A/Q23R/R24A (SEQ 423) repeat 5: T21A,Q23R,R24A (Xanthomonas sp. (engineered)); details: average of 3 experiments
[21] = tested on: TALE repeat framework T2S/P3T/D4A (SEQ 424) repeat 5: T2S,P3T,D4A (Xanthomonas sp. (engineered)); details: average of 3 experiments
[22] = tested on: TALE repeat framework T2S/P3T/D4A/T21A/Q23R/R24A (SEQ 425) repeat 5: T2S,P3T,D4A,T21A,Q23R,R24A (Xanthomonas sp. (engineered)); details: average of 3 experiments
[23] = tested on: TALE repeat framework V22A (SEQ 412) repeat 5: V22A (Xanthomonas sp. (engineered)); details: average of 3 experiments
[24] = tested on: TALE repeat framework V6A (SEQ 76) repeat 5: V6A (Xanthomonas sp. (engineered)); details: average of 3 experiments
[25] = tested on: TALE repeat framework V7A (SEQ 403) repeat 5: V7A (Xanthomonas sp. (engineered)); details: average of 3 experiments
[26] = tested on: TALE test backbone, repeat 5 RVD AN (synthetic (Xanthomonas TALE)); details: ELISA
[27] = tested on: TALE test backbone, repeat 5 RVD AT (synthetic (Xanthomonas TALE)); details: ELISA
[28] = tested on: TALE test backbone, repeat 5 RVD DH (synthetic (Xanthomonas TALE)); details: ELISA
[29] = tested on: TALE test backbone, repeat 5 RVD GG (synthetic (Xanthomonas TALE)); details: ELISA
[30] = tested on: TALE test backbone, repeat 5 RVD HA (synthetic (Xanthomonas TALE)); details: ELISA
[31] = tested on: TALE test backbone, repeat 5 RVD HI (synthetic (Xanthomonas TALE)); details: ELISA
[32] = tested on: TALE test backbone, repeat 5 RVD HN (synthetic (Xanthomonas TALE)); details: ELISA
[33] = tested on: TALE test backbone, repeat 5 RVD IG (synthetic (Xanthomonas TALE)); details: ELISA
[34] = tested on: TALE test backbone, repeat 5 RVD IP (synthetic (Xanthomonas TALE)); details: ELISA
[35] = tested on: TALE test backbone, repeat 5 RVD KG (synthetic (Xanthomonas TALE)); details: ELISA
[36] = tested on: TALE test backbone, repeat 5 RVD KS (synthetic (Xanthomonas TALE)); details: ELISA
[37] = tested on: TALE test backbone, repeat 5 RVD NA (synthetic (Xanthomonas TALE)); details: ELISA
[38] = tested on: TALE test backbone, repeat 5 RVD ND (Xanthomonas sp. (engineered)); details: RVD ND
[39] = tested on: TALE test backbone, repeat 5 RVD NG (Xanthomonas sp. (engineered)); details: RVD NG
[40] = tested on: TALE test backbone, repeat 5 RVD NN (Xanthomonas sp. (engineered)); details: RVD NN
[41] = tested on: TALE test backbone, repeat 5 RVD QA (synthetic (Xanthomonas TALE)); details: ELISA
[42] = tested on: TALE test backbone, repeat 5 RVD QG (synthetic (Xanthomonas TALE)); details: ELISA
[43] = tested on: TALE test backbone, repeat 5 RVD RA (synthetic (Xanthomonas TALE)); details: ELISA
[44] = tested on: TALE test backbone, repeat 5 RVD RI (synthetic (Xanthomonas TALE)); details: ELISA
[45] = tested on: TALE test backbone, repeat 5 RVD TA (synthetic (Xanthomonas TALE)); details: ELISA
[46] = tested on: TALE test backbone, repeat 5 RVD YG (synthetic (Xanthomonas TALE)); details: ELISA
[47] = tested on: TALE test backbone, repeat 5 RVD HD, standard framework (SEQ 333) (Xanthomonas sp. (engineered)); details: reference

Sequence: TTGACCATCCT (double strand) [CCA target]
- binding signal (normalized ELISA) [1]: 0.25
- binding signal (normalized ELISA) [2]: 0.73
- binding signal (normalized ELISA) [3]: 0.82
- binding signal (normalized ELISA) [4]: 0.82
- binding signal (normalized ELISA) [5]: 0.62
- binding signal (normalized ELISA) [6]: 0.76
- binding signal (normalized ELISA) [7]: 1.09
- binding signal (normalized ELISA) [8]: 0.9
- binding signal (normalized ELISA) [9]: 1
- binding signal (normalized ELISA) [10]: 1.21
- binding signal (normalized ELISA) [11]: 1.29
- binding signal (normalized ELISA) [12]: 0.91
- binding signal (normalized ELISA) [13]: 0.92
- binding signal (normalized ELISA) [14]: 0.97
- binding signal (normalized ELISA) [15]: 0.88
- binding signal (normalized ELISA) [16]: 1.03
- binding signal (normalized ELISA) [17]: 0.92
- binding signal (normalized ELISA) [18]: 0.9
- binding signal (normalized ELISA) [19]: 1.05
- binding signal (normalized ELISA) [20]: 1.42
- binding signal (normalized ELISA) [21]: 0
- binding signal (normalized ELISA) [22]: 0
- binding signal (normalized ELISA) [23]: 0.7
- binding signal (normalized ELISA) [24]: 0.89
- binding signal (normalized ELISA) [25]: 0.26
- binding signal (normalized ELISA) [26]: 0
- binding signal (normalized ELISA) [27]: 0.58
- binding signal (normalized ELISA) [28]: 0.01
- binding signal (normalized ELISA) [29]: 0.35
- binding signal (normalized ELISA) [30]: 0.53
- binding signal (normalized ELISA) [31]: 0.1
- binding signal (normalized ELISA) [32]: 0
- binding signal (normalized ELISA) [33]: 0.02
- binding signal (normalized ELISA) [34]: 0.13
- binding signal (normalized ELISA) [35]: 0.27
- binding signal (normalized ELISA) [36]: 0.78
- binding signal (normalized ELISA) [37]: 0.67
- binding signal (normalized ELISA) [38]: 0.73
- binding signal (normalized ELISA) [39]: 0.14
- binding signal (normalized ELISA) [40]: 0
- binding signal (normalized ELISA) [41]: 0.19
- binding signal (normalized ELISA) [42]: 0.11
- binding signal (normalized ELISA) [43]: 0.89
- binding signal (normalized ELISA) [44]: 0.05
- binding signal (normalized ELISA) [45]: 0.2
- binding signal (normalized ELISA) [46]: 0.02
- binding signal (normalized ELISA) [47]: 1
